# Reference: PMC7850899, “Nutrient transceptors physically interact with the yeast S6/protein kinase B homolog, Sch9, a TOR kinase target” (Biochemical Journal, 2021)
# B1: GST-tagged Sch9 (GST-Sch9) [S. cerevisiae] / HA-tagged wild type Gap1 (HA-Gap1) [S. cerevisiae] (parent complex)
# chain 1: MMNFFTSKSSNQDTGFSSQHQHPNGQNNGNNNSSTAGNDNGYPCKLVSSGPCASSNNGALFTNFTLQTATPTTAISQDLYAMGTTGITSENALFQMKSMNNGISSVNNNNSNTPTIITTSQEETNAGNVHGDTGGNSLQNSEDDNFSSSSTTKCLLSSTSSLSINQREAAAAAYGPDTDIPRGKLEVTIIEARDLVTRSKDSQPYVVCTFESSEFISNGPESLGAINNNNNNNNNNQHNQNQHINNNNENTNPDAASQHHNNNSGWNGSQLPSIKEHLKKKPLYTHRSSSQLDQLNSCSSVTDPSKRSSNSSSGSSNGPKNDSSHPIWHHKTTFDVLGSHSELDISVYDAAHDHMFLGQVRLYPMIHNLAHASQHQWHSLKPRVIDEVVSGDILIKWTYKQTKKRHYGPQDFEVLRLLGKGTFGQVYQVKKKDTQRIYAMKVLSKKVIVKKNEIAHTIGERNILVTTASKSSPFIVGLKFSFQTPTDLYLVTDYMSGGELFWHLQKEGRFSEDRAKFYIAELVLALEHLHDNDIVYRDLKPENILLDANGNIALCDFGLSKADLKDRTNTFCGTTEYLAPELLLDETGYTKMVDFWSLGVLIFEMCCGWSPFFAENNQKMYQKIAFGKVKFPRDVLSQEGRSFVKGLLNRNPKHRLGAIDDGRELRAHPFFADIDWEALKQKKIPPPFKPHLVSETDTSNFDPEFTTASTSYMNKHQPMMTATPLSPAMQAKFAGFTFVDESAIDEHVNNNRKFLQNSYFMEPGSFIPGNPNLPPDEDVIDDDGDEDINDGFNQEKNMNNSHSQMDFDGDQHMDDEFVSGRFEI
# chain 2: MSNTSSYEKNNPDNLKHNGITIDSEFLTQEPITIPSNGSAVSIDETGSGSKWQDFKDSFKRVKPIEVDPNLSEAEKVAIITAQTPLKHHLKNRHLQMIAIGGAIGTGLLVGSGTALRTGGPASLLIGWGSTGTMIYAMVMALGELAVIFPISGGFTTYATRFIDESFGYANNFNYMLQWLVVLPLEIVSASITVNFWGTDPKYRDGFVALFWLAIVIINMFGVKGYGEAEFVFSFIKVITVVGFIILGIILNCGGGPTGGYIGGKYWHDPGAFAGDTPGAKFKGVCSVFVTAAFSFAGSELVGLAASESVEPRKSVPKAAKQVFWRITLFYILSLLMIGLLVPYNDKSLIGASSVDAAASPFVIAIKTHGIKGLPSVVNVVILIAVLSVGNSAIYACSRTMVALAEQRFLPEIFSYVDRKGRPLVGIAVTSAFGLIAFVAASKKEGEVFNWLLALSGLSSLFTWGGICICHIRFRKALAAQGRGLDELSFKSPTGVWGSYWGLFMVIIMFIAQFYVAVFPVGDSPSAEGFFEAYLSFPLVMVMYIGHKIYKRNWKLFIPAEKMDIDTGRREVDLDLLKQEIAEEKAIMATKPRWYRIWNFWC
# B2: GST-tagged Sch9 (GST-Sch9) [S. cerevisiae] / Gap1 peptide 222-GVKGYGEAEFVFSFI-236 [S. cerevisiae] (parent complex)
# chain 1: B1 chain 1
# chain 2: GVKGYGEAEFVFSFI
# Variants of: B1
# Experiment: GST pull-down assay; parent: 100
row,percent of parent,Variant
1,102 % of Gap1WT,"chain 2 F231D, chain 2 V232K, chain 2 F233D"
2,98.9 % of Gap1WT,chain 2 F231D
3,138 % of Gap1WT,chain 2 F233D
4,86.9 % of Gap1WT,chain 2 V232K

# Variants of: B2
# Experiment: substitution peptide microarray; 100 or 500 µg/ml GST-Sch9; parent: 100; read off a plot
row,Variant,percent of parent
1,chain 2 G1F,~140 % of wild type peptide
2,chain 2 G6F,~330 % of wild type peptide

# Next, values leading:
row,percent of parent,Variant
1,~240 % of wild type peptide,chain 2 S13C
2,~150 % of wild type peptide,chain 2 I15E
